# Assay results: IntAct's records for PubMed 29892012
# B1: Glycodelin (Homo sapiens), P09466 (parent)
# chain: MLCLLLTLGVALVCGVPAMDIPQTKQDLELPKLAGTWHSMAMATNNISLMATLKAPLRVHITSLLPTPEDNLEIVLHRWENNSCVEKKVLGEKTENPKKFKINYTVANEATLLDTDYDNFLFLCLQDTTTPIQSMMCQYLARVLVEDDEIMQGFIRAFRPLPRHLWYLLDLKQMEEPCRF
# partner: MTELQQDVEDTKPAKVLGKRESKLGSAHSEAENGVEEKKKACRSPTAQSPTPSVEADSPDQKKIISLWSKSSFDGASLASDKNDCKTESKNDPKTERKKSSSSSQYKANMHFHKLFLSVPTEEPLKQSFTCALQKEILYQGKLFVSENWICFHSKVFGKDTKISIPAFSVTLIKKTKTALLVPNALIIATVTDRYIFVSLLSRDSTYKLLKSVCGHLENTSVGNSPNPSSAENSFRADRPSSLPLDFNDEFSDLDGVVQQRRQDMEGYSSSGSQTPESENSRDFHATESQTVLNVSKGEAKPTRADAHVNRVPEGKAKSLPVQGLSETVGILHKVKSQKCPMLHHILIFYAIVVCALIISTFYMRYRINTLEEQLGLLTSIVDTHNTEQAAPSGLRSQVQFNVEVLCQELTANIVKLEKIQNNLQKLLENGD
# B2: Transcription factor RFX3 (Homo sapiens), P48380 (parent)
# chain: MQTSETGSDTGSTVTLQTSVASQAAVPTQVVQQVPVQQQVQQVQTVQQVQHVYPAQVQYVEGSDTVYTNGAIRTTTYPYTETQMYSQNTGGNYFDTQGSSAQVTTVVSSHSMVGTGGIQMGVTGGQLISSSGGTYLIGNSMENSGHSVTHTTRASPATIEMAIETLQKSDGLSTHRSSLLNSHLQWLLDNYETAEGVSLPRSTLYNHYLRHCQEHKLDPVNAASFGKLIRSIFMGLRTRRLGTRGNSKYHYYGIRVKPDSPLNRLQEDMQYMAMRQQPMQQKQRYKPMQKVDGVADGFTGSGQQTGTSVEQTVIAQSQHHQQFLDASRALPEFGEVEISSLPDGTTFEDIKSLQSLYREHCEAILDVVVNLQFSLIEKLWQTFWRYSPSTPTDGTTITESSNLSEIESRLPKAKLITLCKHESILKWMCNCDHGMYQALVEILIPDVLRPIPSALTQAIRNFAKSLEGWLSNAMNNIPQRMIQTKVAAVSAFAQTLRRYTSLNHLAQAARAVLQNTSQINQMLSDLNRVDFANVQEQASWVCQCDDNMVQRLETDFKMTLQQQSTLEQWAAWLDNVMMQALKPYEGRPSFPKAARQFLLKWSFYSSMVIRDLTLRSAASFGSFHLIRLLYDEYMFYLVEHRVAQATGETPIAVMGEFGDLNAVSPGNLDKDEGSEVESEMDEELDDSSEPQAKREKTELSQAFPVGCMQPVLETGVQPSLLNPIHSEHIVTSTQTIRQCSATGNTYTAV
# partner: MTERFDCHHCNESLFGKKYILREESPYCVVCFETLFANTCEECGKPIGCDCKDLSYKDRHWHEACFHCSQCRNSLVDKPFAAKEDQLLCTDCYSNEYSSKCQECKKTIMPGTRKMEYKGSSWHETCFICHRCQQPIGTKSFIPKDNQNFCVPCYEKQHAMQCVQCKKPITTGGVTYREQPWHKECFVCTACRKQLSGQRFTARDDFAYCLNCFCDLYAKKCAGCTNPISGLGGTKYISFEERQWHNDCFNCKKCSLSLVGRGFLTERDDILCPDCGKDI
# B3: Myotubularin-related protein 9 (Homo sapiens), Q96QG7 (parent)
# chain: MEFAELIKTPRVDNVVLHRPFYPAVEGTLCLTGHHLILSSRQDNTEELWLLHSNIDAIDKRFVGSLGTIIIKCKDFRIIQLDIPGMEECLNIASSIEALSTLDSITLMYPFFYRPMFEVIEDGWHSFLPEQEFELYSSATSEWRLSYVNKEFAVCPSYPPIVTVPKSIDDEALRKVATFRHGGRFPVLSYYHKKNGMVIMRSGQPLTGTNGRRCKEDEKLINATLRAGKRGYIIDTRSLNVAQQTRAKGGGFEQEAHYPQWRRIHKSIERYHILQESLIKLVEACNDQTHNMDRWLSKLEASNWLTHIKEILTTACLAAQCIDREGASILIHGTEGTDSTLQVTSLAQIILEPRSRTIRGFEALIEREWLQAGHPFQQRCAQSAYCNTKQKWEAPVFLLFLDCVWQILRQFPCSFEFNENFLIMLFEHAYASQFGTFLGNNESERCKLKLQQKTMSLWSWVNQPSELSKFTNPLFEANNLVIWPSVAPQSLPLWEGIFLRWNRSSKYLDEAYEEMVNIIEYNKELQAKVNILRRQLAELETEDGMQESP
# partner: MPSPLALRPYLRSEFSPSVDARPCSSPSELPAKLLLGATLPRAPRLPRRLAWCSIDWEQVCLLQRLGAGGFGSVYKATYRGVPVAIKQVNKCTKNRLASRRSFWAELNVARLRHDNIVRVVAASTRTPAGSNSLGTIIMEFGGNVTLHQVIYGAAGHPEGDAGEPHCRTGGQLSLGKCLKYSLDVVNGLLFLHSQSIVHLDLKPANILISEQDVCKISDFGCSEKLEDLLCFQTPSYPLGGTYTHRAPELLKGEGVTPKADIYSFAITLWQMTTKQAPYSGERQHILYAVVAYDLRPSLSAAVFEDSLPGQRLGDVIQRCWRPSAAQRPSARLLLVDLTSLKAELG
# B4: Myotubularin-related protein 9 (Homo sapiens), Q96QG7 (parent)
# chain: B3 chain
# partner: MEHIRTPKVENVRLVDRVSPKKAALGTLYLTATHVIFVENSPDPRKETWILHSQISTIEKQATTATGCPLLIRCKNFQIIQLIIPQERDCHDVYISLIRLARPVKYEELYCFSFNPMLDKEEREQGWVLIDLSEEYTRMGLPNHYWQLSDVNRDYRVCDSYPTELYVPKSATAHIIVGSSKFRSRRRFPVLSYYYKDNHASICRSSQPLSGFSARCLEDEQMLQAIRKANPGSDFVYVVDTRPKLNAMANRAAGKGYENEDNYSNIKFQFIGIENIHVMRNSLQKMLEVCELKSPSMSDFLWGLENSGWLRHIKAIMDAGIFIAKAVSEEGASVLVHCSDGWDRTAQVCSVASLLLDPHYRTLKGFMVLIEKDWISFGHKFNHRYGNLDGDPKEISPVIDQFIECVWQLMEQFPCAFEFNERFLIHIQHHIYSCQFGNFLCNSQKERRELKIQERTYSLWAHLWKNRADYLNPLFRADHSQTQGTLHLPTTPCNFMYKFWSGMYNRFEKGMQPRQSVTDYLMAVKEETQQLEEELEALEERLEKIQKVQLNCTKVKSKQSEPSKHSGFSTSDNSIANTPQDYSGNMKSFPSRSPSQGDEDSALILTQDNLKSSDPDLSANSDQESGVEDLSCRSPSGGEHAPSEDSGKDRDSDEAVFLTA
# Variants of: B1
# Settings: with grm2b_human GRAMD2B
row,Variant,effect of a mutation on the interaction
1,MLCLLLTLGVALVCGVPAMDIPQTKQDLELPKLAGTWHSMAMATNNISLMATLKAPLRVHITSLLPTPEDNLEIFLHRWENNSCVEKKVLGEKTENPKKFKINYTVANEATLLDTDYDNFLFLCLQDTTTPIQSMMCQYLARVLVEDDEIMQGFIRAFRPLPRHLWYLLDLKQMEEPCRF [V75F],disrupting interaction strength

# Variants of: B2
# Settings: with fhl2_human FHL2, Q14192
row,Variant,effect of a mutation on the interaction
1,S387C,with no effect

# Variants of: B2
# Settings: with fhl2_human FHL2, Q14192
# Remark: another data set of the same source
row,Variant,effect of a mutation on the interaction
1,Y135D,with no effect

# Variants of: B3
# Settings: with mos_human MOS
row,Variant,effect of a mutation on the interaction
1,MEFAELIKTPRVDNVVLHRPFYPAVEGTLCLTGHHLILSSRQDNTEELWLLHSNIDAIDKRFVGSLGTIIIKCKDFRIIQLDIPGMEECLNIASSIEALSTLDSITLMYPFFYRPMFEVIEDGWHSFLPEQEFELYSSATSEWRLSYVNKEFAVCPSYPPIVTVPKSIDDEALRKVATFRHGGRFPVLSYYHKKNGMVIMRSGQPLTGTNGRRCKEDEKLINATLRAGKRGYIIDTRSLNVAQQTRAKGGGFEQEAHYPQWRRIHKSIERYHILQESLIKLVEACNDQTHNMDRWLSKLEASNWLTHIKEILTTACLAAQCIDREGASILIHGTEGTDSTLQVTSLAQIILEPRSRTISGFEALIEREWLQAGHPFQQRCAQSAYCNTKQKWEAPVFLLFLDCVWQILRQFPCSFEFNENFLIMLFEHAYASQFGTFLGNNESERCKLKLQQKTMSLWSWVNQPSELSKFTNPLFEANNLVIWPSVAPQSLPLWEGIFLRWNRSSKYLDEAYEEMVNIIEYNKELQAKVNILRRQLAELETEDGMQESP [R359S],with no effect

# Variants of: B4
# Settings: with mtmr7_human MTMR7, Q9Y216
row,Variant,effect of a mutation on the interaction
1,MEFAELIKTPRVDNVVLHRPFYPAVEGTLCLTGHHLILSSRQDNTEELWLLHSNIDAIDKRFVGSLGTIIIKCKDFRIIQLDIPGMEECLNIASSIEALSTLDSITLMYPFFYRPMFEVIEDGWHSFLPEQEFELYSSATSEWRLSYVNKEFAVCPSYPPIVTVPKSIDDEALRKVATFRHGGRFPVLSYYHKKNGMVIMRSGQPLTGTNGRRCKEDEKLINATLRAGKRGYIIDTRSLNVAQQTRAKGGGFEQEAHYPQWRRIHKSIERYHILQESLIKLVEACNDQTHNMDRWLSKLEASNWLTHIKEILTTACLAAQCIDREGASILIHGTEGTDSTLQVTSLAQIILEPRSRTISGFEALIEREWLQAGHPFQQRCAQSAYCNTKQKWEAPVFLLFLDCVWQILRQFPCSFEFNENFLIMLFEHAYASQFGTFLGNNESERCKLKLQQKTMSLWSWVNQPSELSKFTNPLFEANNLVIWPSVAPQSLPLWEGIFLRWNRSSKYLDEAYEEMVNIIEYNKELQAKVNILRRQLAELETEDGMQESP [R359S],with no effect
